According to article PMC6202311, “Substrate Recognition and Autoinhibition in the Central Ribonuclease RNase E” (Molecular Cell, 2018):

B1: RNase E (1–529) D303R, D346R (domain or fragment)
chain: not shown
notes: Crystallised with a 5' monophosphorylated MicC-ompD fusion RNA; Prepared as in Callaghan et al., 2005; cloned in pET16; source: E. coli BL21(DE3), purified (nickel HiTrap Chelating, optional heparin or butyl Sepharose, gel filtration)
B2: RNase E (1–510) D303R, D346R (domain or fragment)
chain: not shown
notes: Crystallised with full-length sRNA RprA; also called RNase E (1–511); source: E. coli BL21(DE3), purified (nickel HiTrap Chelating, optional heparin or butyl Sepharose, gel filtration)

Key:
[1] = target: the molecule itself; test: crystal structure; RNase E (1-529) D303R, D346R co-crystallised with 5' monophosphorylated MicC-ompD fusion RNA (1:1 molar ratio); 3.0 Å, space group C2; open-state quaternary structure
[2] = target: the molecule itself; test: crystal structure; RNase E (1-510) D303R, D346R co-crystallised with full-length sRNA RprA; 3.95 Å, space group P6(1); 0.1 M KCl, 0.01 M MgCl2, 0.05 M Tris-HCl pH 8.5, 30% PEG 400, 20°C; tetramer as a dimer of dimers

Protein	binding result [1]	stoichiometry N [2]
B1	binds	–
B2	–	4
